In patent EP1574569A1, “THREE-DIMENSIONAL STRUCTURE OF LIPOCALIN-TYPE PROSTAGLANDIN D SYNTHASE AND UTILIZATION OF THE SAME” (RIKEN, priority 2002, dated 2004):
Residue numbers refer to the chain shown, from its start. In names and notes the source's numbering stands. Each block holds one molecule with its values, some of them ahead of it.

How the values were obtained:
[1] = target: T1, L-PGDS (Mus musculus, UniProt O09114); experiment: Binding of retinoids to L-PGDS
T1 sequence (O09114 25-189): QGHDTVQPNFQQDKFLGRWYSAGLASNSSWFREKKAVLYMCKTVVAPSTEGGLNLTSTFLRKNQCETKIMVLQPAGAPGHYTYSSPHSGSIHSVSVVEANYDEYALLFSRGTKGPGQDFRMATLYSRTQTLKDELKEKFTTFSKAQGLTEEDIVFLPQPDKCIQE

[2] = target: T2, L-PGDS mutant Cys^89,186Ala (Mus musculus, UniProt O09114, C186A/C89A); experiment: Binding of prostaglandins to L-PGDS by surface plasmon resonance (BiaCore 2000); settings: for binding to L-PGDS (in words): 10 µM (Figure 7)
T2 construct: GST (N, cleaved yes); made in house; host or cells: Escherichia coli DH5α
T2 sequence (O09114 25-189 C89A/C186A): T1 sequence (O09114 25-189) with C65A, C162A
Protocol: L-PGDS can act as a PGD2 transporter protein. […] That is, L-PGDS act as a PGD2 synthesis enzyme coupled with COX in cells and thereafter as an extracellular transporter of PGD2.
The binding of PGD2, PGE2 or PGF2α to L-PGDS was analyzed with BiaCore 2000 system (BiaCore, Uppsala, Sweden) using the surface plasmon resonance method. L-PGDS mutant Cys^89,186Ala was immobilized on CM5 sensor chip (BIAcore AB) coated with carboxymethyldextran. Binding assay was carried out at a constant flow rate of 30µ l/min. in the concentration range of 0.1 to 10 µ M in both the binding phase and the dissociation phase. After each assay, the sensor chip surface was regenerated with 15 µ l of 1.5 M urea. Rate constant values were calculated using analysis soft wear BIA Evaluation 3.0 soft wear after subtracting control surface (bovine serum albumin) using Langmuir 1: 1 binding model by four independent experiments.

[3] = target: H-PGDS (Homo sapiens, UniProt O60760); experiment: Affinity of H-PGDS to PGD2; assay type: binding
H-PGDS, sequence (O60760 whole entry, species assumed): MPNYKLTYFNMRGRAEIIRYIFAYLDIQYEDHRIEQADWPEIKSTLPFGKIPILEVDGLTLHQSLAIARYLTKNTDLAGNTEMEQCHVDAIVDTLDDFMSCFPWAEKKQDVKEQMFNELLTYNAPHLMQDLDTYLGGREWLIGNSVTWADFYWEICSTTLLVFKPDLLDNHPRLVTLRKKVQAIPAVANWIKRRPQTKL

[4] = test system: human cerebellum medulloblast (TE671) expressing L-PGDS; experiment: Inhibition of A23187-stimulated PGD2 production from cells expressing L-PGDS (EIA); assay type: cell-based; settings: TE-671 cells, A23187 5 µM, compound added 15 minutes before stimulation, medium recovered 15 minutes after
Protocol: TE-671 is seeded on microplate at the density of 1×10^7. The cells were stimulated by A231875 (5 µ M) to cause PGD2 production. […] The culture medium was recovered 15 minutes after A23187 stimulation to quantify the PGD2 concentration in the culture medium by enzyme immunoassay (EIA).

[5] = target: hematopoietic PGD Synthase (H-PGDS) (Homo sapiens, UniProt O60760); experiment: Inhibition of hematopoietic PGD synthase enzyme activity ([1-14C]PGH2 to PGD2, thin layer chromatography); assay type: biochemical; settings: 3 to 300 µM; PGH2 40 µM, 0.1 mM GSH, 25°C, 30 seconds
hematopoietic PGD Synthase (H-PGDS), sequence (O60760 whole entry, species assumed): as above
Protocol: In the measurement of hematopoietic PGD Synthase (H-PGDS), [1-^14C] PGH2 (40µM) as substrate is reacted in the presence of 0.1 M Tris-HCl (pH 8.0) and 0.1 mM GSH (reduced glutathione) at 25°C for 30 seconds.
After the completion of the reaction, the reaction liquid was subjected to thin layer chromatography to isolate and quantify PGD2 to calculate enzyme activity.

[6] = substrate: [H][C@]12C[C@]([H])(OO1)[C@H](C/C=C\CCCC(=O)O)[C@H]2/C=C/[C@@H](O)CCCCC; experiment: PGDS activity kinetics of L-PGDS mutants; assay type: biochemical, mouse; settings: other: Km for PGH2, pH=8.0, 25.0 °C
Excerpt: Since the preparation of recombinant protein having the same PGDS activity as purified wild-type enzyme is easy, Cys^89,186Ala construct was used for this purpose. Various mutants were expressed, purified to homogeneity and L-PGDS activities were compared at pH 8, 9 and 10 (Figure 8) .
After a candidate compound of L-PGDS inhibitor is selected, it is preferably contacted with the enzyme in the presence of the substrate (prostaglandin H2) to confirm an ability of the compound to inhibit the enzyme (see, for example, Shimizu, t., Yamamoto, S., and Hayaishi O. (1979), Purification and Properties of prostaglandin D synthase from rat brain, J. Biol. Chem., 254:5222-5228). The enzyme activity can be measured, for example, as follows:
The substrate [1-^14C]prostaglandin (PG)H2 is synthesized by reacting [1^-14C]arachidonic acid with cyclooxygenase. Since PGH2 is easily decomposed in an aqueous solution (half life: about 5 minutes), it is evaporated to dryness and stored at low temperature(-80°C). The enzyme reaction is performed by injecting 1 µL of PGH2 solution(acetone or non-volatile diethylenediglycohol solution) with a microsyringe to 49 µ L of 0.1 M phosphate buffer (pH8.0) containing 1 mM dithiothreitol (DTT) and the enzyme. After the reaction at 25 °C for 30 to 60 seconds, the reaction is quenched by the addition of 300 µL of ice-cold mixed solution of ether/methanol/0.1 M citric acid (30:4:1 v/v/v) followed by extraction the substrate and reaction product under acidic condition into ether layer. Subsequently, anhydrous sodium sulfate was added to dehydrate it. An aliquot of organic layer (about 50 µ L) is coated on silica gel thin layer in a low temperature room (4°C) and subjected to silica gel thin layer chromatography in a freezer (-20 °C) (developing solvent: ether/methanol/acetic acid (90:2:1 v/v/v) . After the development, radioactivity of PGD2 fraction and fraction other than it are measured to calculate an enzyme activity based on the conversion ratio to PGD2.
The site-specific mutagenesis was performed using a Quick change site-directed mutagenesis kit (Stratgene, Heiderberg, Germany). The DNA sequence was confirmed by the determination of cycle sequencing by a SequiTherm cycle sequencing kit (Epicentre Technologies, Madison, WI) followed by LI-COR model 4000L automatic DNA sequencer (LI-COR Inc., Lincoln, NE)

binding to L-PGDS (in words) [1]: binds
Molecule: CC1=C(/C=C/C(C)=C/C=C/C(C)=C/C=O)C(C)(C)CCC1 [retinal]

binding to L-PGDS (in words) [2]: Neither PGE2 nor PGF2α is bound
Molecule: CCCCC[C@H](O)/C=C/[C@@H]1[C@@H](C/C=C\CCCC(=O)O)[C@@H](O)C[C@H]1O [PGF2α]

kon ([2]; Langmuir 1:1 binding model): 1.24x10^3 ± 37 M^-1sec^-1
Kd ([2]; Langmuir 1:1 binding model, four independent experiments): 89.4 ± 3.4 nM
affinity of H-PGDS to PGD2 (in words) [3]: does not show high affinity
Molecule: CCCCC[C@H](O)/C=C/[C@H]1C(=O)C[C@H](O)[C@@H]1C/C=C\CCCC(=O)O [PGD2]

inhibition of H-PGDS (in words) [5]: does not inhibit
Molecule: C1=Cc2ccccc2C(=C2CCN(CCCCc3nn[nH]n3)CC2)c2ccccc21 [AT-56, 4-dibenzo(a,d)cyclohepten-5-ylidene-1-(4-(2H-tetrazole-5-yl)butyl)piperidine]
inhibition of PGD2 production by A23187 stimulation (in words) [4]: dose-dependently inhibited

binding to L-PGDS (in words) [2]: Neither PGE2 nor PGF2α is bound
Molecule: CCCCC[C@H](O)/C=C/[C@H]1[C@H](O)CC(=O)[C@@H]1C/C=C\CCCC(=O)O [PGE2]

B1: mouse L-PGDS, Wild Type(C65), Cys^89,186Ala construct, SEQ ID NO:1 (Mus musculus; C186A/C89A) (protein)
chain: T1 sequence (O09114 25-189) with C65A, C162A
Km [6]: 13 µM
kcat/Km [6]: 2.38 µM^-1Min^-1

B2: mouse L-PGDS mutant K92E (Lys^92Glu) in Cys^89,186Ala construct (Mus musculus; C186A/C89A/K92E) (protein)
chain: T1 sequence (O09114 25-189) with C65A, K68E, C162A
Km [6]: 14 µM
kcat/Km [6]: 5.71 µM^-1Min^-1

B3: mouse L-PGDS mutant S81A (Ser^81Ala) in Cys^89,186Ala construct (Mus musculus; C186A/C89A/S81A) (protein)
chain: T1 sequence (O09114 25-189) with S57A, C65A, C162A
Km [6]: 12 µM
kcat/Km [6]: 0.50 µM^-1Min^-1

B4: mouse L-PGDS mutant R85E (Arg^85Glu) in Cys^89,186Ala construct (Mus musculus; C186A/C89A/R85E) (protein)
chain: T1 sequence (O09114 25-189) with R61E, C65A, C162A
Km [6]: 7 µM
kcat/Km [6]: 4.86 µM^-1Min^-1

B5: mouse L-PGDS mutant S45A (Ser^45Ala) in Cys^89,186Ala construct (Mus musculus; C186A/C89A/S45A) (protein)
chain: T1 sequence (O09114 25-189) with S21A, C65A, C162A
Km [6]: 11 µM

B6: mouse L-PGDS mutant T147A (Thr^147Ala) in Cys^89,186Ala construct (Mus musculus; C186A/C89A/T147A) (protein)
chain: T1 sequence (O09114 25-189) with C65A, T123A, C162A
Km [6]: 19 µM
kcat/Km [6]: 0.95 µM^-1Min^-1

B7: mouse L-PGDS mutant F83I (Phe^83Ile) in Cys^89,186Ala construct (Mus musculus; C186A/C89A/F83I) (protein)
chain: T1 sequence (O09114 25-189) with F59I, C65A, C162A
Km [6]: 15 µM
kcat/Km [6]: 4.47 µM^-1Min^-1
